pIC50, pKd: −log10 of the molar value.
Experiments:
[1] = target: HLA-B*52:01; test: IEDB peptide-MHC binding, purified MHC/competitive/radioactivity; filed as Kd, often an IC50 or EC50 that approximates it; ≥ and ≤ were set here for values at or beyond the usual limits of such assays; conditions: source organism: Homo sapiens
[2] = target: HLA-B*40:02; test: IEDB peptide-MHC binding, cellular MHC/competitive/fluorescence; ≥ and ≤ were set here for values at or beyond the usual limits of such assays; conditions: source organism: Homo sapiens
[3] = target: HLA-B*27:05; test: IEDB peptide-MHC binding, purified MHC/competitive/fluorescence; ≥ and ≤ were set here for values at or beyond the usual limits of such assays; conditions: source organism: hepatitis C virus genotype 1a
[4] = target: HLA-A*02:01; test: IEDB peptide-MHC binding, cellular MHC/competitive/fluorescence; ≥ and ≤ were set here for values at or beyond the usual limits of such assays; conditions: source organism: Homo sapiens
[5] = target: HLA-A*01:01; test: IEDB peptide-MHC binding, purified MHC/direct/fluorescence; filed as Kd, often an IC50 or EC50 that approximates it; ≥ and ≤ were set here for values at or beyond the usual limits of such assays; conditions: source organism: Brucella abortus
[6] = target: HLA-A*02:01; test: as above; conditions: source organism: Brucella abortus
[7] = target: HLA-A*02:03; test: as above; conditions: source organism: Brucella suis 1330
[8] = target: HLA-A*02:11; test: as above; conditions: source organism: Brucella suis 1330
[9] = target: HLA-A*02:12; test: as above; conditions: source organism: Brucella suis 1330
[10] = target: HLA-A*02:19; test: as above; conditions: source organism: Brucella suis 1330
[11] = target: HLA-A*03:01; test: as above; conditions: source organism: Brucella abortus
[12] = target: HLA-A*11:01; test: as above; conditions: source organism: Brucella abortus
[13] = target: HLA-A*26:01; test: as above; conditions: source organism: Brucella suis 1330
[14] = target: HLA-A*31:01; test: as above; conditions: source organism: Brucella abortus
[15] = target: HLA-A*69:01; test: as above; conditions: source organism: Brucella abortus
[16] = target: HLA-B*07:02; test: as above; conditions: source organism: Brucella abortus
[17] = target: HLA-B*08:01; test: as above; conditions: source organism: Brucella suis 1330
[18] = target: HLA-B*15:01; test: as above; conditions: source organism: Brucella abortus
[19] = target: HLA-B*27:05; test: as above; conditions: source organism: Brucella abortus
[20] = target: HLA-B*40:01; test: as above; conditions: source organism: Brucella abortus
[21] = target: HLA-B*44:02; test: as above; conditions: source organism: Brucella abortus
[22] = target: HLA-B*58:01; test: as above; conditions: source organism: Brucella abortus
[23] = target: HLA-C*12:03; test: as above; conditions: source organism: Brucella abortus bv. 1 str. 9-941
[24] = target: HLA-A*01:01; test: IEDB peptide-MHC binding, purified MHC/competitive/fluorescence; filed as Kd, often an IC50 or EC50 that approximates it; ≥ and ≤ were set here for values at or beyond the usual limits of such assays; conditions: source organism: Mycobacterium tuberculosis variant bovis BCG str. Pasteur 1173P2
[25] = target: HLA-A*02:01; test: as above; conditions: source organism: Mycobacterium tuberculosis variant bovis BCG str. Pasteur 1173P2
[26] = target: HLA-A*02:03; test: as above; conditions: source organism: Mycobacterium tuberculosis variant bovis BCG str. Pasteur 1173P2
[27] = target: HLA-A*02:06; test: as above; conditions: source organism: Mycobacterium tuberculosis variant bovis BCG str. Pasteur 1173P2
[28] = target: HLA-A*03:01; test: as above; conditions: source organism: Mycobacterium tuberculosis variant bovis BCG str. Pasteur 1173P2
[29] = target: HLA-A*11:01; test: as above; conditions: source organism: Mycobacterium tuberculosis variant bovis BCG str. Pasteur 1173P2
[30] = target: HLA-A*30:01; test: as above; conditions: source organism: Mycobacterium tuberculosis variant bovis BCG str. Pasteur 1173P2
[31] = target: HLA-A*31:01; test: as above; conditions: source organism: Mycobacterium tuberculosis variant bovis BCG str. Pasteur 1173P2
[32] = target: HLA-A*69:01; test: as above; conditions: source organism: Mycobacterium tuberculosis variant bovis BCG str. Pasteur 1173P2
[33] = target: HLA-B*15:01; test: as above; conditions: source organism: Mycobacterium tuberculosis variant bovis BCG str. Pasteur 1173P2
[34] = target: HLA-B*15:09; test: as above; conditions: source organism: Mycobacterium tuberculosis variant bovis BCG str. Pasteur 1173P2
[35] = target: HLA-B*15:17; test: as above; conditions: source organism: Mycobacterium tuberculosis variant bovis BCG str. Pasteur 1173P2
[36] = target: HLA-B*15:42; test: as above; conditions: source organism: Mycobacterium tuberculosis variant bovis BCG str. Pasteur 1173P2
[37] = target: HLA-B*18:01; test: as above; conditions: source organism: Mycobacterium tuberculosis variant bovis BCG str. Pasteur 1173P2
[38] = target: HLA-B*27:05; test: as above; conditions: source organism: Mycobacterium tuberculosis variant bovis BCG str. Pasteur 1173P2
[39] = target: HLA-B*35:01; test: as above; conditions: source organism: Mycobacterium tuberculosis variant bovis BCG str. Pasteur 1173P2
[40] = target: HLA-B*39:01; test: as above; conditions: source organism: Mycobacterium tuberculosis variant bovis BCG str. Pasteur 1173P2
[41] = target: HLA-B*40:01; test: as above; conditions: source organism: Mycobacterium tuberculosis variant bovis BCG str. Pasteur 1173P2
[42] = target: HLA-B*45:06; test: as above; conditions: source organism: Mycobacterium tuberculosis variant bovis BCG str. Pasteur 1173P2
[43] = target: HLA-B*46:01; test: as above; conditions: source organism: Mycobacterium tuberculosis variant bovis BCG str. Pasteur 1173P2
[44] = target: HLA-B*48:01; test: as above; conditions: source organism: Mycobacterium tuberculosis variant bovis BCG str. Pasteur 1173P2
[45] = target: HLA-B*51:01; test: as above; conditions: source organism: Mycobacterium tuberculosis variant bovis BCG str. Pasteur 1173P2
[46] = target: HLA-B*57:01; test: as above; conditions: source organism: Mycobacterium tuberculosis variant bovis BCG str. Pasteur 1173P2
[47] = target: HLA-B*58:01; test: as above; conditions: source organism: Mycobacterium tuberculosis variant bovis BCG str. Pasteur 1173P2
[48] = target: HLA-B*83:01; test: as above; conditions: source organism: Mycobacterium tuberculosis variant bovis BCG str. Pasteur 1173P2

**Q.** QQITQTEV was tested. Which pKd [1] did it give?
**A.** ≤ 4.52

**Q.** With GSFSRFYSL as the sequence, how does the pIC50 [2] read?
**A.** 6.52

**Q.** How did the pIC50 [3] turn out when GSAAICGKY was run?
**A.** 5.32

**Q.** How did the pIC50 [4] turn out when FLMDFIHQV was run?
**A.** 6.62

**Q.** What does the source list for KLYERNTAF?
**A.** pKd [5]: ≤ 4.70; pKd [6]: 6.54; pKd [7]: 7.57; pKd [8]: 8.05; pKd [9]: 7.06; pKd [10]: ≤ 5.30; pKd [11]: 6.29; pKd [12]: 5.40; pKd [13]: ≤ 4.70; pKd [14]: 6.86; pKd [15]: ≤ 4.70; pKd [16]: ≤ 4.70; pKd [17]: 6.95; pKd [18]: 7.24; pKd [19]: 6.49; pKd [20]: ≤ 4.70; pKd [21]: ≤ 4.70; pKd [22]: 6.55; pKd [23]: 6.58

**Q.** KPIPHRTVL was tested. Which pKd [24] did it give?
**A.** 6.24

**Q.** And the pKd [25]?
**A.** ≤ 4.70

**Q.** What about the pKd [26] of the same sequence?
**A.** ≤ 4.70

**Q.** And the pKd [27]?
**A.** 5.55

**Q.** And the pKd [28]?
**A.** 5.64

**Q.** And the pKd [29]?
**A.** 6.90

**Q.** And the pKd [30]?
**A.** 6.12

**Q.** What about the pKd [31] of the same sequence?
**A.** ≤ 4.70

**Q.** And the pKd [32]?
**A.** ≤ 4.70

**Q.** What about the pKd [33] of the same sequence?
**A.** ≤ 4.70

**Q.** And the pKd [34]?
**A.** 5.88

**Q.** What about the pKd [35] of the same sequence?
**A.** ≤ 4.70

**Q.** And the pKd [36]?
**A.** ≤ 5.30

**Q.** What about the pKd [37] of the same sequence?
**A.** ≤ 4.70

**Q.** What about the pKd [38] of the same sequence?
**A.** ≤ 4.70

**Q.** What about the pKd [39] of the same sequence?
**A.** 6.21

**Q.** And the pKd [40]?
**A.** 7.73

**Q.** What about the pKd [41] of the same sequence?
**A.** ≤ 4.70

**Q.** And the pKd [42]?
**A.** ≤ 5.30

**Q.** What about the pKd [43] of the same sequence?
**A.** ≤ 4.70

**Q.** And the pKd [44]?
**A.** ≤ 4.70

**Q.** What about the pKd [45] of the same sequence?
**A.** ≤ 4.70

**Q.** What about the pKd [46] of the same sequence?
**A.** ≤ 4.70

**Q.** What about the pKd [47] of the same sequence?
**A.** ≤ 4.70

**Q.** What about the pKd [48] of the same sequence?
**A.** 6.12
